{"source": "the DeepSol protein solubility set", "data": [{"experiment": "soluble on expression in E. coli; label from the status in PepcDB or PDB records", "values": [{"sequence": "MQEQAQQFIFKVTDKAVEEIKKVAQENNIENPILRIRVVPGGCSGFQYAMGFDDTVEEGDHVFEYDGVKVVIDPFSMPYVNGAELDYVVDFMGGGFTIRNPNATGSCGCGSSFSCGLEHHHHHH", "soluble on expression in E. coli": "soluble"}, {"sequence": "MQGAQTSEDNLGSQSQPGPCGYIYFYPLATYPLREVATLGTGYAGHRCLTVPLLCGITVEPGFSINVKALHRRPDPNCGLLRATSYHRDIYVFHNAHMVPPIFEGPGLEALCGETREVFGYDAYSALPRESSKPGDFFPEGLDPSAYLGAVAITEAFKERLYSGNLVAIPSLKQEVAVGQSASVRVPLYDKEVFPEGVPQLRQFYNSDLSRCMHEALYTGLAQALRVRRVGKLVELLEKQSLQDQAKVAKVAPLKEFPASTISHPDSGALMIVDSAACELAVSYAPAMLEASHETPASLNYDSWPLFADCEGPEARVAALHRYNASLAPHVSTQIFATNSVLYVSGVSKSTGQGKESLFNSFYMTHGLGTLQEGTWDPCRRPCFSGWGGPDVTGTNGPGNYAVEHLVYAASFSPNLLARYAYYLQFCQGQKSSLTPVPETGSYVAGAAASPMCSLCEGRAPAVCLNTLFFRLRDRFPPVMSTQRRDPYVISGASGSYNETDFLGNFLNFIDKEDDGQRPDDEPRYTYWQLNQNLLERLSRLGIDAEGKLEKEPHGPRDFVKMFKDVDAAVDAEVVQFMNSMAKNNITYKDLVKSCYHVMQYSCNPFAQPACPIFTQLFYRSLLTILQDISLPICMCYENDNPGLGQSPPEWLKGHYQTLCTNFRSLAIDKGVLTAKEAKVVHGEPTCDLPDLDAALQGRVYGRRLPVRMSKVLMLCPRNIKIKNRVVFTGENAALQNSFIKSTTRRENYIINGPYMKFLNTYHKTLFPDTKLSSLYLWHNFSRRRSVPVPSGASAEEYSDLALFVDGGSRAHEESNVIDVVPGNLVTYAKQRLNNAILKACGQTQFYISLIQGLVPRTQSVPARDYPHVLGTRAVESAAAYAEATSSLTATTVVCAATDCLSQVCKARPVVTLPVTINKYTGVNGNNQIFQAGNLGYFMGRGVDRNLLQAPGAGLRKQAGGSSMRKKFVFATPTLGLTVKRRTQAATTYEIENIRAGLEAIISQKQEEDCVFDVVCNLVDAMGEACASLTRDDAEYLLGRFSVLADSVLETLATIASSGIEWTAEAARDFLEGVWGGPGAAQDNFISVAEPVSTASQASAGLLLGGGGQGSGGRRKRRLATVLPGLEV", "soluble on expression in E. coli": "soluble"}, {"sequence": "MQGEALKDFLFDKADDMKAVDIVTLDVKEKSSVTDYMIVCTGTSKRHVASIAEHVANEAKLSGLQPLGMNGENEGEWVVLDMGSVMLHVMQEAPRELYQLEKLWGLEHHHHHH", "soluble on expression in E. coli": "not soluble"}, {"sequence": "MQIVTDKNKVALYYKDIAVTYKEFILNTKKIKQFTKIKEFTNNMIYMENRPELLYSFFAIWDSRATCVCIDASSTAVELTYYIDNSDVVKIFTTKMQVEKVKGALSILSKQIEIIVVDEINLSEIKIDENSSENLVINSPEKEDTALILYTSGTTGKPKGVMLTFDLEHHHHHH", "soluble on expression in E. coli": "not soluble"}, {"sequence": "MQKAKNDYGTVVSVLKEDFHGFATGSIGAPDLNTVLTYAFPGECEYPWINFKPGYTQQQGWGGANVWQAGGTVCLNADGENFSHLNTPMLNVSGYQNIAIVRFDGVSDSLFSCLIREIRTLPSFASMPVRRKEWPIRL", "soluble on expression in E. coli": "not soluble"}, {"sequence": "MQKVLAIVGPTAIGKTDLAISLAQKLNGEIISGDSMQVYQEVEVGTAKATKEEQAKVKHYLVDNRSVFDEYSVKDFVDEAKKAISEVAKKGKLPILVGGTGFYVNALLNEMQLGERNDEERGTSQKWEDYLKENGAEKLWQILNEKDPTAAAKIPVPNSRRTMRALTVIDRTGKKFSEQQKKIKPRYDYLIIGLNSDRQEIYRRINLRVDKMMGKGMLEEAKFIYDNRDKEHQILQAIAYKEFFPYFDGEKSLEDCVTQLKTASRRYAKRQLTYFRNQLPIQWFDPLNDLECEQKIINKVREWENGLEHHHHHH", "soluble on expression in E. coli": "soluble"}, {"sequence": "MQLEELINQHYSKLNDNDFHILKYILNHKHTCYHLGIDALAKACSVSRSSILRLAQKLGFSGYSEFRVFLKWEDQPEEGESMSFEKLLDDIEANLKFLRTKDMTDMCQLIDAADRIFVYGSGNAQKICARDLQRMFIPRHRYLILIEDTNEFNLMRDDFKVNDLFIIISLSGETPELIPQARMLSAKGIPFISITNLKNNVLAQLTPHNLYATSKPVTLSDRTEIVAFAPFFLVGEALFRAYVDYKEAEKNDNEMAGDPLEHHHHHH", "soluble on expression in E. coli": "soluble"}, {"sequence": "MQNAVKLDEIDHKIMNLLYENARISVSEIGRIISMTQPAVKERINKLEDQGVIAAYRTKFEPSKINKNIQAFIMFKTSQCSDFIQFCNAAPEVTDLYRISGEFNYMMKVMSDSMDSLAAFLDSLMQFGLSSPLIVLKSEFEEKLSF", "soluble on expression in E. coli": "soluble"}, {"sequence": "MQNKIQVKSVEKRENALIFCAENSEIEVKELSARNHVLVDSDNLSFLYILENESSFIYVSIPHTCWEAMHEAMNNDVVMFVRVNDIEMELEGLKEEVEYLVENIEGNANYGEELVTAVEKVFL", "soluble on expression in E. coli": "not soluble"}, {"sequence": "MQNPQNLIWIDLEMTGLDPDRDVIIEMATIVTDSDLNTLAEGPVIAIHQPEEILAGMDEWNTRQHGQSGLTQRVRESTVSMAEAEAQTLAFLEQWVPKRSSPICGNSICQDRRFLYRHMPRLEGYFHYRNLDVSTLKELAARWAPQVRESFKKGNTHLALDDIRESIAELRHYRDHFIKL", "soluble on expression in E. coli": "not soluble"}, {"sequence": "MQNTAHIIGAGISGLSAAVRLANAGFKVAVHEATHQAGGRCRSYFDGATNLTIDNGNHLLLSGNSHARAYARSIGTEAGLVGPESAQFPFVDIKTGQRWQIDLGTGRLPTWVLDESRRVPDTGLTDYLKLAPLIWASEETLVGKSIPTEGVLYQRLVQPLLLAALNVDPPEGSAGLAGAIVRETLLAGGQACRPLIARDGLSAVLIEPAVKFLQERGHSVQLGHELRAFVTSDGKAGALNFGGEDVIQLADGDVVVMAVPPRAAASLLPGLKTPTEFRAIVNAHFRFEPPPGSPPILGVIGGIVEWLFAFPNRLSVTISNGDRLVDMPREELAQAIWNDVCEAGGVSGELPPWQIVRERRATFAATPAQNALRPGPVTALKNLFLAGDWTATGLPATIEGSVRSGDRAADLVLAAQRPLEHHHHHH", "soluble on expression in E. coli": "not soluble"}, {"sequence": "MQNTTHDNVILELTVRNHPGVMTHVCGLFARRAFNVEGILCLPIQDSDKSHIWLLVNDDQRLEQMISQIDKLEDVVKVQRNQSDPTMFNKIAVFFQ", "soluble on expression in E. coli": "not soluble"}, {"sequence": "MQPNDITFFQRFQDDILAGRKTITIRDESESHFKTGDVLRVGRFEDDGYFCTIEVTATSTVTLDTLTEKHAEQENMTLTELKKVIADIYPGQTQFYVIEFKCL", "soluble on expression in E. coli": "soluble"}, {"sequence": "MQQEEPNKYVKELTQEKYKYGFTTEVHTDVIERGLNEDVVRLISSKKDEPEWLLEFRLKAYRHWLTLEMPTWAHLRIPEIDYQAISYYADPTKKKEGPKSMDEVDPELIKTFNKLGIPLEEQMALSGMAVDAVMDSVSVKTTFKETLMEKGIIFCSFSEAVREHPDLVKKYMGSVVGYRDNFFAALNSAVFSDGSFVYIPKGVRCPMELSTYFRINARNTGQFERTLIVADDDSYVSYLEGCTAPMRDENQLHAAIVEIVVHDRAEVKYSTVQNWYPGDAEGKGGVYNFVTKRGNCKGVDSKLSWTQVETGSAITWKYPSCILTGDNSTAEFYSVAVTNNYQQADTGTKMIHLGKNTRSTIVSKGISAGHSENSYRGLVRVAEKADNARNYSQCDSLLLGDKCGAHTFPYMDIHNETAVVEHEATTSKISEDQIFYCNQRGIPTEDAIGLIVNGYAKEVLNKLPMEFAVEAQKLLTISLEGSVG", "soluble on expression in E. coli": "not soluble"}, {"sequence": "MQQINFYRQRVAINVLAKDIANAKAIYEAAEGHAVIGVLSAQFATVEEGVPEVKRWMAEVPSISVGLGAGDPAQYYKAAMIAAHTHPAHVNQTFTGSGFAAGALAATGGEQTHINALVSPTGTPGEVVISTGVSSSQGTPARVSCEAAVRMMQDMGAHAAKFFPMGGEKSLPELYALATTAARHGMTLIEPTGGISLDNFGIILQTCLEAGVPRVMPHVYSSIIDPQTGNTRPEDIIRLMEIVKALV", "soluble on expression in E. coli": "not soluble"}, {"sequence": "MQQQILERIEDCYQQAEAYFKRAFPRPTTQFTLRGRSAGTAHLQQNRLRFNPVLLRENSEAFLAEVVPHEISHLLCFQIFGKTKPHGREWQSIMLKLFKISPNTTHNFDTQSVKGKDVEYRCACGPIRLGIRRHNKVLRGETRYLCKRCHTHLTLALEHHHHHH", "soluble on expression in E. coli": "not soluble"}, {"sequence": "MQQQVAPVPVIGVTADVLQMQANMKSLKSQLTNAPYGDSPLLKYNANPEIDGKSSPASTQRQLRFLAAKKGALSSSSDAQDSSFIIPPISKVMSDLSPAVTRSADVTKDLNYTSKEAPPSLARGLRNSTFNPNMSLTNRSVHESSALDKTIDSALDASMNGTSNRLGVRGSVRRSNLKQLDMSLLADSSRVGRESRVADPDALPRISESERRQDVVTSTPAVDPVQAVIQRHNDRNRDPPSLNLDTTCDEHTGLEPVSAATSSAASVVSTPSEETVNVNSAAGVKLTKPDYFSLPTINEMKNMIKNGRVVLEDGLTVGRSSYGSVYWPGRVELKDVALDEIVVFRHREVTVYPNEEEKAPEGQELNRPAEVTLERVWYTDKKTKKEVRDVVKLSEIGWREHLERQTIRMGAAFKDFRAETGSWVFRVDHFSKYGLADDDEPMDGSPPQQALQASSPLQVIDMNTSARDVNNQVQRKKVHKATDAHHQEIILERVPAPAALGDVVPIIRRVNRKGLGGGTLDDSREESCIGNMTTEFNESGHDSIIEEGQQPEKKPKLELLADLEYESSRFIRNLQELKVMPKANDPAHRFHGGGHSAKMIGYGKSKLIDIGIVKGRSSHVGWSETGCLVWSAQPRHNQVLFGTIDRTSDVNENTLISMLDVNVHVSETSRKGPSSQSNSVKSSLTSNFVTYSDSYSSMFAKYIDVAQAGGYDGHVSVWKLISALFPYERREGWSFERGEEIGEWLRTEAVKSVPDDRSADTSSNGVWNQLCLGDIDKAFQIAIDNNQPQLATMLQTSAVCPEATVHCFKAQLDNWKKCETLHLIPKETLKCYVLMSGLSHYEWDQDGKNHSINCLDGLNWIQALGLHVWYLRAWTGLEESYDAYQKDVNAGRAASNRGDLPGELIKLACESQHSVEVVLDCAAGENPNDYFLQWHVWSLLYSVGYRTMSKTSETRLHRNYSSQLEASSLSKYALFVLQHIDDDEERSTAVRSLLDRIARFTDNDMFDSISEQFDIPSEWIADAQFSIAKSVDDSTQLFELAVAAKNYLEICRLFVDDIAPTAVVAGDHDALKAACAMVRPFENQIPEWGATGMVYTDYCRLINLIENDAEEELLQDVLESLETRLHAPTISKNSLQKLSLQTIGRVLFEYRADKNTLPEWTKLLGHRQMFKIFRDRSSWGIERFTIEFD", "soluble on expression in E. coli": "not soluble"}, {"sequence": "MQQVFNVSVPVPDDVVIISKEEYLNLLSDNEQGKWWDIDNLQELLGIGRSKLINDILLNPDIKKEVDLSINPNGFIVYPKGKGSRYKILATKARKYFEDNFGS", "soluble on expression in E. coli": "not soluble"}, {"sequence": "MQRGLLVLHASAIAAAGKGAIFMGDKGAGKSTTASALIRAGHELLTDDVVALDLARPDAPMIVAGFPQIKLAADAAAAISLGRAEVRPQVHPAIEKMQHRLHGAFSGGMVPATRIYVLERGLEHHHHHH", "soluble on expression in E. coli": "not soluble"}, {"sequence": "MQTPHILIVEDELVTRNTLKSIFEAEGYDVFEATDGAEMHQILSEYDINLVIMDINLPGKNGLLLARELREQANVALMFLTGRDNEVDKILGLEIGADDYITKPFNPRELTIRARNLLSRTMQ", "soluble on expression in E. coli": "soluble"}]}]}
